These results are taken from patent US20210292413A1.

In experiment [1] the target is T1, human Siglec-3 on cells (moDC, PBMC of CHB patients) (human), P20138. In words: co-IP (IP: Siglec-3) from moDC, lane Mock; Western blot, densitometry [A]. Conditions: remark: other sources report otherwise.
Experiment [2] has as its target T1, human Siglec-3 on cells (moDC, PBMC of …). In words: co-IP (IP: Siglec-3) from moDC treated with HBV (hHBV); Western blot, densitometry, fold of Mock [A]. Conditions: remark: other sources report otherwise. (In general: In western blotting, separated proteins are transferred to a membrane and probed.)
Experiment [3] shares this target. Nature of the experiment: co-IP (IP: Siglec-3) from moDC treated with anti-Siglec-3 mAb 2B9; Western blot, densitometry, fold of Mock [A]. Conditions: remark: other sources report otherwise.
The target is the same in experiment [4]. Nature of the experiment: co-IP (IP: Siglec-3) from moDC treated with anti-Siglec-3 mAb 10C8; Western blot, densitometry, fold of Mock [A]. Conditions: remark: other sources report otherwise.
Experiment [5] shares this target. In words: co-IP (IP: Siglec-3) from moDC, HBV +, 10C8 -; Western blot, densitometry, normalized to the untreated control [E]. Conditions: remark: other sources report otherwise.
Experiment [6] has the same target. Nature of the experiment: co-IP (IP: Siglec-3) from moDC, HBV -, 10C8 +; Western blot, densitometry, normalized to the untreated control [E]. Conditions: remark: other sources report otherwise.
The target is the same in experiment [7]. Nature of the experiment: co-IP (IP: Siglec-3) from moDC, HBV -, 10C8 -; Western blot, densitometry, normalized to the untreated control [E]. Conditions: remark: other sources report otherwise.
For experiment [8] the target is unchanged. In words: co-IP (IP: Siglec-3) from moDC incubated with hHBV for 0 min; Western blot, densitometry, normalized to the starting point [E].
For experiment [9] the target is unchanged. In words: co-IP (IP: Siglec-3) from moDC incubated with hHBV for 15 min; Western blot, densitometry, normalized to the starting point [E].
Experiment [10] shares this target. Nature of the experiment: co-IP (IP: Siglec-3) from moDC incubated with hHBV for 30 min; Western blot, densitometry, normalized to the starting point [E].
Experiment [11] shares this target. Nature of the experiment: co-IP (IP: Siglec-3) from moDC incubated with hHBV for 60 min; Western blot, densitometry, normalized to the starting point [E].
Experiment [12] has the same target. In words: co-IP (IP: Siglec-3) from moDC incubated 30 mins with 0 copies/mL hHBV; Western blot, densitometry, normalized to the first lane [F]. To be noted: remark: other sources report otherwise.
Experiment [13] shares this target. In words: co-IP (IP: Siglec-3) from moDC incubated 30 mins with 10^8 copies/mL hHBV; Western blot, densitometry, normalized to the first lane [F]. To be noted: remark: other sources report otherwise.
Experiment [14] has the same target. In words: co-IP (IP: Siglec-3) from moDC incubated 30 mins with 10^9 copies/mL hHBV; Western blot, densitometry, normalized to the first lane [F]. To be noted: remark: other sources report otherwise.
Experiment [15] shares this target. Nature of the experiment: co-IP (IP: Siglec-3) from moDC incubated 30 mins with 3x10^8 copies/mL hHBV; Western blot, densitometry, normalized to the first lane [F]. Conditions: remark: other sources report otherwise.
Experiment [16] has the same target. Nature of the experiment: co-IP (IP: Siglec-3) from moDC, HBV +, 10C8 + (10C8 given 1 hour before HBV); Western blot, densitometry, normalized to the untreated control [E]. To be noted: remark: other sources report otherwise.

T1 sequence (P20138 18-364): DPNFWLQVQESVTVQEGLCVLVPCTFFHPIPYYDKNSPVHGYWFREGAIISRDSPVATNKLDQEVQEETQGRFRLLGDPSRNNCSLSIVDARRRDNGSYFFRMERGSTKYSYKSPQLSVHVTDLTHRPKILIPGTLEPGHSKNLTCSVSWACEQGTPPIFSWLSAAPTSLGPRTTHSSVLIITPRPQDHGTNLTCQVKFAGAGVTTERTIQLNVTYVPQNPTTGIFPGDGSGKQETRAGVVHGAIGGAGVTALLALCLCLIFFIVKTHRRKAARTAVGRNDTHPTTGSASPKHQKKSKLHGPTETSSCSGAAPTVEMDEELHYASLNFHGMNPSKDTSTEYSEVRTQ

B1: SHP-2, Q06124 2-593 (protein, human, UniProt Q06124 2-593, looked up)
chain: TSRRWFHPNITGVEAENLLLTRGVDGSFLARPSKSNPGDFTLSVRRNGAVTHIKIQNTGDYYDLYGGEKFATLAELVQYYMEHHGQLKEKNGDVIELKYPLNCADPTSERWFHGHLSGKEAEKLLTEKGKHGSFLVRESQSHPGDFVLSVRTGDDKGESNDGKSKVTHVMIRCQELKYDVGGGERFDSLTDLVEHYKKNPMVETLGTVLQLKQPLNTTRINAAEIESRVRELSKLAETTDKVKQGFWEEFETLQQQECKLLYSRKEGQRQENKNKNRYKNILPFDHTRVVLHDGDPNEPVSDYINANIIMPEFETKCNNSKPKKSYIATQGCLQNTVNDFWRMVFQENSRVIVMTTKEVERGKSKCVKYWPDEYALKEYGVMRVRNVKESAAHDYTLRELKLSKVGQGNTERTVWQYHFRTWPDHGVPSDPGGVLDFLEEVHHKQESIMDAGPVVVHCSAGIGRTGTFIVIDILIDIIREKGVDCDIDVPKTIQMVRSQRSGMVQTEAQYRFIYMAVQHYIETLQRRIEEEQKSKRKGHEYTNIKYSLADQTSGDQSPLPPCTPTPPCAEMREDSARVYENVGLMQQQKSFR
On to B1, for which the fold change of SHP-2 co-precipitated with Siglec-3 amounted to 1 fold in experiment [1]; 1.2 fold in [2]; 4.3 fold in experiment [3]; 1.3 fold in experiment [4]; 2.7 fold in experiment [5]; 1.2 fold in [6]. The fold change of SHP-2 co-precipitated with Siglec-3 was determined as 1 fold in [7]; 1 fold in experiment [8]; 1.5 fold in [9]; 2.4 fold in experiment [10]; 1.3 fold in experiment [11]; 1 fold in [12]. In addition, the fold change of SHP-2 co-precipitated with Siglec-3 is 1.1 fold in experiment [13], 1.6 fold in [14], 1.2 fold in experiment [15] and 1.6 fold in experiment [16].
